Measured values from paper PMC7884072, “Development of antibody-dependent cell cytotoxicity function in HIV-1 antibodies” (eLife, 2021).

Columns and labels:
Conditions in all cases: both partners purified
[1] = molecular target: T1, gp41 ectodomain (HIV strain C.ZA.1197MB) (HIV-1 strain C.ZA.1197MB); test: BLI; Octet RED; mAb (8 µg/mL) captured on anti-human IgG Fc biosensors (ligand); monomeric gp41 ectodomain or gp120 as analyte in a series of up to six two-fold dilutions; 30°C; 1X PBS, 0.1% BSA, 0.005% Tween-20, 0.02% sodium azide; association 180 s, dissociation 180 s; double referencing; 1:1 model
T1 construct: gp41 ectodomain of HIV-1 Env, strain C.ZA.1197MB (clade C); Called monomeric in the legends; also called monomeric C.ZA.1197MB gp41 ectodomain; clade C gp41 ectodomain; source: bought: Immune Technology Corp
T1 chain: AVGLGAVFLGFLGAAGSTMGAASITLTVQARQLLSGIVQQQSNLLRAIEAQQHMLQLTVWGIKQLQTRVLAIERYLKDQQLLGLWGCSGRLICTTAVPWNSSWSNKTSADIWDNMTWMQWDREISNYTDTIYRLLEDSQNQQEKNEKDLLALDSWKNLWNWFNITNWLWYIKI

[2] = molecular target: T2, gp120 (HIV strain BL035.W6M.C1) (HIV-1 strain BL035.W6M.C1); test: BLI; mAb lineage members captured on anti-human IgG Fc biosensors (ligand); monomeric gp41 ectodomain or BL035.W6M.C1 gp120 as analyte at 62.5 nM
T2 construct: gp120, the surface subunit cut from HIV-1 Env gp160, strain BL035.W6M.C1 (clade A); Called monomeric in the legends; also called monomeric BL035.W6M.C1 gp120; monomeric gp120; source: bought: Immune Technology Corp

[3] = molecular target: T2, gp120 (HIV strain BL035.W6M.C1); test: BLI; 157-lineage naive antibodies as ligand; monomeric BL035 gp120 as analyte at 250 nM; without the double reference approach

B1: 072-0VH0VK (antibody, V domains shown)
VH: QVQLVQSGAEVKKPGSSVKVSCKASGGTFSSYAISWVRQAPGQGLEWMGGIIPILGIANYAQKFQGRVTITADESTSTAYMELSSLRSEDTAVYYCARHYDDSSGFFYGAFDIWGQGTTLTVSS
VL: DIQMTQSPSSLSASVGDRVTITCRASQGISNYLAWYQQKPGKVPKLLIYAASTLQSGVPSRFSGSGSGTDFTLTISSLQPEDVATYYCQKYNSAPWTFGQGTKVEIK
notes: 072-0VH, inferred naive heavy chain variable region (VH 1-69*11, DH 4-17*01, JH 3*02); 072-0VK, inferred naive kappa variable region (VK 1-27*01, JK 1*01); Whole human IgG1, kappa (Igγ1 vector Addgene 80795, Igκ vector Addgene 80796); also called 072 lineage inferred naive mAb; inferred naive precursor of the 072 lineage; source: HEK 293F, co-transfected, purified (protein G)
Kd [1]: 34.4 nM

B2: 105-1VH1VK (antibody, V domains shown)
VH: EVQLVESGGGLVKPGGSLRLSCAASGFSFTNAYMSWVRQAPGKGLEWVGRIKSKADDGTTDYAAPVKGRFTISRDDSKNTLYLQMNSLKTEDTAVYYCTTGVMIANQDSYYYMDVWGKGTTVAVSS
VL: not shown
notes: Whole human IgG1, kappa; source: HEK 293F, co-transfected, purified (protein G)
binding result [2]: binds

B3: 157-0VHAVK (antibody, V domains shown)
VH: QVQLVQSGAEVKKPGSSVKVSCKASGGTFSSYAISWVRQAPGQGLEWMGGIIPILGIANYAQKFQGRVTITADESTSTAYMELSSLRSEDTAVYYCARGKVSSSDWFQPIYYYYMDVWGGGTTVTVSS
VL: EIVMTQSPATLSVSPGERATLSCRASQSISSYLAWYQQKPGQAPRLLIYDASNRATGIPARFSGSGSGTDFTLTISSLEPEDFAVYYCQQRSNSLPFGQGTRLEIK
notes: as for B2
binding result [3]: no binding (tested: 250 nM)
